The EC50 is the concentration giving half of the maximal effect.

For assay [1], the target named is T1, Human LILRB1 (D1-D2) fused to mouse IgG2a Fc (human).
T1 construct: also called truncated (D1-D2) version of the LILRB1 ecto-domain
The experiment in a line: ELISA, antigen coated, 10 nM antibody. The text has this: (§1) FIG. 3. Mixed LILRB1 and LILRB2 expression in TAMs from melanoma cancer patients. Analysis of LILRB1 and LILRB2 detection in macrophages in pre- and post-anti-PD-1 and/or anti-CTLA-4 therapy treated melanoma patients (n=33) is shown using Smart-seq2 data from Sade-Feldman et al. https://pubmed.ncbi.nlm.nih.gov/30633907/FIG. 4. Binding to domains of human LILRB1. Plates were coated with recombinant full length LILRB1 ectodomain (SEQ ID NO: 41) or a protein comprising domain 1 and 2 of human LILRB1 protein (SEQ ID NO: 42), and then incubated with 10 nM Clones 1-5, Reference Ab 1, and Isotype control. The bound antibodies were detected using HRP-labeled secondary antibodies and the results were plotted on the graph as absorbance measured at 450 nm.
(§2) Binding to allelic forms of LILRB1. There are 4 major allelic variants of human LILRB1 protein ectodomain. The variants of LILRB1 were expressed as recombinant proteins comprising a modified LILRB1 ectodomain and mouse IgG2 Fc region (SEQ ID NO: 50 and 51) in suspension CHO cells, and purified by using techniques that were known in the art. These recombinant proteins were then used in the direct enzyme-linked immunosorbent assay (ELISA) to determine the antibodies potential to bind different allelic forms of LILRB1. In short, Maxisorp (Nunc) or similar immune-assay plates were coated with solutions of target proteins in PBS, at 4° C., overnight. Plates were then washed with PBS, blocked with 5% milk in PBS, and washed again. Test antibodies diluted in PBS were then added to the plates and incubated at room temperature for at least 1h. Plates were subsequently washed with PBS/0.05% Tween-20 (PBST) and incubated with a solution of horse radish peroxidase (HRP) labelled secondary antibodies at room temperature for at least 1 h. After washing with PBST and PBS, bound antibodies were detected using the 3,3′,5,5;-tetramethylbenzidine (TMB) chromogenic solution. After 5 to 10 minutes, the reaction was stopped with 1% sulphuric acid and absorbance read at 450 nm.
(§3) There are four major allelic variants within the ecto-domain of LILRB1 in human population [Human Molecular Genetics, 2005, Vol. 14, 2469-2480]; namely c.203T>C (L68P), c.277G>A (A93T), c.425T>C (I142T), and c.464G>T (S155I).
A general note: An ELISA detects its analyte on a solid surface through an enzyme-linked reagent.

Assay [2] addresses T2, human LILRB1 ectodomain fused to mIgG2a Fc (human).
T2 construct: also called human LILRB1-mIgG2a; full length LILRB1 ectodomain
As to the kind of experiment: ELISA, antigen coated, 10 nM antibody.
Source text: as §1, §2, §3

For a further assay, the target named is T3, Human full length LILRB1 (human, UniProt Q8NHL6 24-650).
T3 construct: Over-expressed on HEK293 cells for flow cytometry; also called LILRB1 on HEK293 cells; cell membrane embedded LILRB1
As to the kind of experiment: flow cytometry on HEK293 cells overexpressing human LILRB1. How it is done: FIG. 5. Binding to LILRB1 over-expressing cell line. HEK293 cells overexpressing full length human LILRB1 (SEQ ID NO: 45) were incubated with various concentrations of test antibodies (Antibody 1 to 5 and Reference Ab 1). The bound antibodies were detected using PE-labeled secondary antibodies and analyzed by flow cytometry. A) Plot showing mean fluorescence intensity (MFI), B) EC50 values calculated using data from panel A.
Binding to human LILRB1 and LILRB2. HEK293 cells stably expressing full length human LILRB1 (SEQ ID NO: 45), or LILRB2 (SEQ ID NO: 46), or wild-type cells were detached from the culture plates using methods known in art. […] The extent of antibody binding to cells stably expressing full-length human LILRB1, or full-length human LILRB2, was determined by flow cytometry and quantified using geometric mean of the fluorescent signal (GEOM).
The ability of selected anti-LILRB-1 antibodies to bind to the LILRB1 receptor in its native context of the cell membrane was investigated by flow cytometry. HEK293 cells over-expressing full length human LILRB1 (SEQ ID NO: 45) were incubated with the increasing amounts of the antibodies and the cell bound antibodies were detected using PE-labelled secondary antibodies using a flow-cytometer.
On the technique in general: In flow cytometry, cells or beads pass a laser one at a time.

In another assay the target is T4, Human full length LILRB2 (human, UniProt Q8N423 22-597).
T4 construct: Over-expressed on HEK293 cells for flow cytometry; Also used here as the parent protein of the D3-D4 peptide microarrays; also called LILRB2 on HEK293 cells
As to the kind of experiment: flow cytometry on HEK293 cells overexpressing human LILRB2. The method, then: FIG. 7. Binding to LILRB2 over-expressing cell line. HEK293 cells overexpressing full length human LILRB2 (SEQ ID NO: 46) were incubated with various concentrations of test antibodies (Antibody 1 to 5 and Reference Antibody 1).
Binding to human LILRB1 and LILRB2. HEK293 cells stably expressing full length human LILRB1 (SEQ ID NO: 45), or LILRB2 (SEQ ID NO: 46), or wild-type cells were detached from the culture plates using methods known in art. The cells were then incubated with anti-LILRB1 Ab clones at different concentrations followed by incubation with fluorescently labelled secondary antibodies. The extent of antibody binding to cells stably expressing full-length human LILRB1, or full-length human LILRB2, was determined by flow cytometry and quantified using geometric mean of the fluorescent signal (GEOM).

T1 sequence (chain, as listed by the source limits assumed): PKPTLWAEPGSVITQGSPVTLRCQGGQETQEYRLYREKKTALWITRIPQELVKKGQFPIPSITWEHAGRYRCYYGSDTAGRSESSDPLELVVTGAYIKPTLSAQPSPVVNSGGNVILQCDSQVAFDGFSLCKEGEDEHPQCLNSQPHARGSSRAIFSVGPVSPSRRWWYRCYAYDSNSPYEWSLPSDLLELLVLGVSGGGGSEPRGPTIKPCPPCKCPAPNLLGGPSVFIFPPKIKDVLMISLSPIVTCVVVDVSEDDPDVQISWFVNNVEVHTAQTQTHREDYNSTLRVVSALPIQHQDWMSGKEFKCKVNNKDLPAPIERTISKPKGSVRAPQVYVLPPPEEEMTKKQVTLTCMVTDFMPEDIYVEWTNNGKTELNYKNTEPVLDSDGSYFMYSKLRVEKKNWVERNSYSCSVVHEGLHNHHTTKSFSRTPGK
T2 sequence (chain, as listed by the source limits assumed): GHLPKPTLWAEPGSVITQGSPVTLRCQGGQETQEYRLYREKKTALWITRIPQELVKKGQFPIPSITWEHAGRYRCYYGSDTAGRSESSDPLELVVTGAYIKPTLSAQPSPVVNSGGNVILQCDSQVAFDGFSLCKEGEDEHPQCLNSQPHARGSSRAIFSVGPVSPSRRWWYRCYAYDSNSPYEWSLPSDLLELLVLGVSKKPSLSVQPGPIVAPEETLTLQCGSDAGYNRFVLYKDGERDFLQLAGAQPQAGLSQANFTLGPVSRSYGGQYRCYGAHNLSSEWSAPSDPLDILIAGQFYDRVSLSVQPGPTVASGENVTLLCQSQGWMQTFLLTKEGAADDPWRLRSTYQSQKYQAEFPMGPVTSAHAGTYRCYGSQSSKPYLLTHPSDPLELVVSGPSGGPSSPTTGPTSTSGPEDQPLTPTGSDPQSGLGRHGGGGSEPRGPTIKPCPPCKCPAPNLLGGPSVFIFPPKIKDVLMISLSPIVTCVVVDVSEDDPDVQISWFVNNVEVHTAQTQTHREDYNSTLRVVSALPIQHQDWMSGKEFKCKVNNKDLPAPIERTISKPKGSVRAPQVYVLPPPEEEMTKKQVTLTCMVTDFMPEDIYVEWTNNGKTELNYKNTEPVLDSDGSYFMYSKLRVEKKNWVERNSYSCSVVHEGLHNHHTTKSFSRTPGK
T3 sequence (Q8NHL6 24-650 limits assumed): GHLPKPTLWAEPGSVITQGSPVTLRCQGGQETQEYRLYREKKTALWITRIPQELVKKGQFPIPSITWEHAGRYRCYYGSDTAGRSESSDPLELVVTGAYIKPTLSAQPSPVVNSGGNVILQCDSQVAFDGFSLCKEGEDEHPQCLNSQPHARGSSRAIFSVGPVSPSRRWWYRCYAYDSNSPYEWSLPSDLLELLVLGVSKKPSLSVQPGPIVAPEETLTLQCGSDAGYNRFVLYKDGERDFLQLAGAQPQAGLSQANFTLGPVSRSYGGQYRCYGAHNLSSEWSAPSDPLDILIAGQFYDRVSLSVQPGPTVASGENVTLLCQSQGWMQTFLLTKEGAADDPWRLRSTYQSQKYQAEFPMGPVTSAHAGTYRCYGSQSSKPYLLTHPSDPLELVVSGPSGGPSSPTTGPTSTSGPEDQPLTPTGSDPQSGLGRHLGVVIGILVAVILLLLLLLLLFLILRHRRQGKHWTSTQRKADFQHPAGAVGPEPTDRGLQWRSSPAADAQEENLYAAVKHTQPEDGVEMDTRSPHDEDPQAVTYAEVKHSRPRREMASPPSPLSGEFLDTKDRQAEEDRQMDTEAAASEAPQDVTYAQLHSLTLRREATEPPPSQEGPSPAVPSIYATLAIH
T4 sequence (Q8N423 other isoform, or with tags, fused parts or gaps limits assumed): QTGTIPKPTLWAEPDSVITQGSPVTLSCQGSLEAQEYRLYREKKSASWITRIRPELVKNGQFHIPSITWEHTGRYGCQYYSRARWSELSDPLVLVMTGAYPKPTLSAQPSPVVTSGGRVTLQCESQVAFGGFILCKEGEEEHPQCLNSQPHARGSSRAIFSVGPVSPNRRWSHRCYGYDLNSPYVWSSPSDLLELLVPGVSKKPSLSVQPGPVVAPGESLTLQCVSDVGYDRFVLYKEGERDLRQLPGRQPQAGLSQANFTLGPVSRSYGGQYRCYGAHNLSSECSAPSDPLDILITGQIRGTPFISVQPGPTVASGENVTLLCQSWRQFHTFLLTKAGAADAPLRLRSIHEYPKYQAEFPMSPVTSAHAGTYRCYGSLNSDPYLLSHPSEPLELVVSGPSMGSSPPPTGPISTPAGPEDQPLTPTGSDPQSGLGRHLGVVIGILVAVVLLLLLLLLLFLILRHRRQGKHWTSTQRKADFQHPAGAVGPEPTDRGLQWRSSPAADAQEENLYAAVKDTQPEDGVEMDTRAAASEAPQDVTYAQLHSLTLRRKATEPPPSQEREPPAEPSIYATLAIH

B1: Reference Antibody 1 (anti-human LILRB1 Ab) (antibody, V domains shown)
VH: DVQLQGSGPGLVKPSETLSLTCSVTGYSITSGYYWNWIRQFPGKKLEWMGYISYDGSNNYNPSLKNRITISRDTSKNQFSLKLNSVTAADTATYYCAHGYSYYYAMDAWGQGTSVTVSS
VL: DIQMTQSPSSLSASVGDRVTITCRTSQDISNYLNWYQQKPGKAVKLLISYTSRLHSGVPSRFSGSGSGTDYTLTISSLQPEDFATYYCQQGNTLPTFGQGTKLEIK
For the molecule B1, the binding result was “binds” in assay [1], “binds” in assay [2] and “no binding” with Human full length LILRB2. This molecule gave an EC50 in the assay with Human full length LILRB1 of 730 pM.
